# According to the supplement of paper PMC9112550, “Optimization of the antimicrobial peptide Bac7 by deep mutational scanning” (BMC Biology, 2022):
# Tested on: Escherichia coli TOP10
# Assay: shrunken log2 fold change of peptide-encoding DNA abundance (4.5 h post-induction vs induction); higher = less antimicrobial activity (less host growth inhibition)
# Settings: time post-induction: 4.5 h; library: site-saturation at positions 5, 18, 19, 20
# 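Further: peptides expressed intracellularly from a pBAD plasmid library in pooled LB shake-flask culture, induced with 0.3% L-arabinose, DNA abundance read by NGS, three biological replicates, DESeq2 with apeglm shrinkage.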
row,Sequence,shrunken log2 fold change
1,RRIRNRPPRLPRPRPRPVPRPRP,0.0283
2,RRIRFRPPRLPRPRPRPKQQPRP,0.146
3,RRIRRRPPRLPRPRPRPDPMPRP,0.326
4,RRIRFRPPRLPRPRPRPVMIPRP,0.122
5,RRIRPRPPRLPRPRPRPYEFPRP,-0.0919
6,RRIRKRPPRLPRPRPRPWVQPRP,0.0916
7,RRIRFRPPRLPRPRPRPVPSPRP,-0.162
8,RRIRYRPPRLPRPRPRPKIDPRP,-0.344
9,RRIRIRPPRLPRPRPRPTAMPRP,-0.191
10,RRIRSRPPRLPRPRPRPIHYPRP,-0.386
11,RRIRCRPPRLPRPRPRPLFYPRP,-0.764
12,RRIRDRPPRLPRPRPRPRANPRP,0.567
13,RRIRPRPPRLPRPRPRPFCWPRP,0.447
14,RRIRNRPPRLPRPRPRPTQLPRP,-0.0336
15,RRIRWRPPRLPRPRPRPEILPRP,-0.0318
16,RRIRVRPPRLPRPRPRPEATPRP,0.92
17,RRIRTRPPRLPRPRPRPWSRPRP,-0.0291
18,RRIRKRPPRLPRPRPRPCEKPRP,0.492
19,RRIRVRPPRLPRPRPRPRLVPRP,1.56
20,RRIRKRPPRLPRPRPRPHMYPRP,-0.131
21,RRIRFRPPRLPRPRPRPFLFPRP,-0.457
22,RRIRVRPPRLPRPRPRPHCVPRP,-0.315
23,RRIRSRPPRLPRPRPRPMAIPRP,4e-05

row,Sequence,shrunken log2 fold change
1,RRIRQRPPRLPRPRPRPKICPRP,-0.101
2,RRIRHRPPRLPRPRPRPNYSPRP,-0.915
3,RRIRPRPPRLPRPRPRPEWHPRP,1.23
4,RRIRMRPPRLPRPRPRPKWSPRP,0.894
5,RRIRERPPRLPRPRPRPFGAPRP,0.143
6,RRIRYRPPRLPRPRPRPADVPRP,-0.127
7,RRIRWRPPRLPRPRPRPEARPRP,0.106
8,RRIRTRPPRLPRPRPRPHKMPRP,-0.0381
9,RRIRYRPPRLPRPRPRPYFSPRP,-1.16
10,RRIRHRPPRLPRPRPRPIWIPRP,0.0409
11,RRIRVRPPRLPRPRPRPRNSPRP,0.1
12,RRIRFRPPRLPRPRPRPWRRPRP,0.0103
13,RRIRGRPPRLPRPRPRPGLHPRP,0.682
14,RRIRPRPPRLPRPRPRPFVDPRP,-0.319
15,RRIRLRPPRLPRPRPRPTADPRP,0.346
16,RRIRQRPPRLPRPRPRPAETPRP,0.0338
17,RRIRLRPPRLPRPRPRPDIHPRP,0.126
18,RRIRARPPRLPRPRPRPVHPPRP,0.217
19,RRIRYRPPRLPRPRPRPSSRPRP,-0.0331
20,RRIRVRPPRLPRPRPRPAVHPRP,-0.021
21,RRIRARPPRLPRPRPRPSQQPRP,-0.0191
22,RRIRKRPPRLPRPRPRPRNNPRP,0.198
23,RRIRKRPPRLPRPRPRPCRFPRP,0.0338

row,Sequence,shrunken log2 fold change
1,RRIRHRPPRLPRPRPRPIMAPRP,-0.383
2,RRIRARPPRLPRPRPRPRMWPRP,0.164
3,RRIRSRPPRLPRPRPRPQWEPRP,0.022
4,RRIRSRPPRLPRPRPRPQAKPRP,0.0225
5,RRIRNRPPRLPRPRPRPEVYPRP,0.0702
6,RRIRCRPPRLPRPRPRPFDAPRP,0.0524
7,RRIRARPPRLPRPRPRPMKQPRP,0.0535
8,RRIRYRPPRLPRPRPRPPPNPRP,0.873
9,RRIRERPPRLPRPRPRPKLHPRP,-0.0464
10,RRIRCRPPRLPRPRPRPTAAPRP,1.33
11,RRIRKRPPRLPRPRPRPIYCPRP,-0.0201
12,RRIRVRPPRLPRPRPRPSLVPRP,0.974
13,RRIRGRPPRLPRPRPRPWHCPRP,-0.0173
14,RRIRGRPPRLPRPRPRPDIMPRP,0.0438
15,RRIRQRPPRLPRPRPRPDCNPRP,0.167
16,RRIRWRPPRLPRPRPRPYIKPRP,-0.736
17,RRIRIRPPRLPRPRPRPYFSPRP,-0.382
18,RRIRCRPPRLPRPRPRPVVNPRP,-0.18
19,RRIRSRPPRLPRPRPRPLGGPRP,0.455
20,RRIRERPPRLPRPRPRPGDKPRP,-0.315
21,RRIRERPPRLPRPRPRPCKKPRP,0.0187
22,RRIRMRPPRLPRPRPRPRLAPRP,2.7
23,RRIRCRPPRLPRPRPRPKEEPRP,-0.0302

row,Sequence,shrunken log2 fold change
1,RRIRYRPPRLPRPRPRPTQIPRP,-0.292
2,RRIRHRPPRLPRPRPRPIARPRP,0.116
3,RRIRSRPPRLPRPRPRPSCMPRP,-0.129
4,RRIRFRPPRLPRPRPRPCLEPRP,-0.489
5,RRIRDRPPRLPRPRPRPIRAPRP,0.0872
6,RRIRIRPPRLPRPRPRPDRTPRP,-0.0709
7,RRIRLRPPRLPRPRPRPWIWPRP,-0.0106
8,RRIRGRPPRLPRPRPRPPDIPRP,0.514
9,RRIRFRPPRLPRPRPRPWYGPRP,-0.138
10,RRIRRRPPRLPRPRPRPREYPRP,0.2
11,RRIRPRPPRLPRPRPRPQCRPRP,0.00385
12,RRIRGRPPRLPRPRPRPQGNPRP,0.236
13,RRIRTRPPRLPRPRPRPPYKPRP,-0.294
14,RRIRARPPRLPRPRPRPRHNPRP,-0.0548
15,RRIRGRPPRLPRPRPRPAFTPRP,0.436
16,RRIRFRPPRLPRPRPRPRDVPRP,0.728
17,RRIRVRPPRLPRPRPRPLLLPRP,-0.52
18,RRIRTRPPRLPRPRPRPYGVPRP,0.0122
19,RRIRVRPPRLPRPRPRPWGPPRP,-0.164
20,RRIRDRPPRLPRPRPRPGNCPRP,0.153
21,RRIRARPPRLPRPRPRPLKSPRP,0.012
22,RRIRARPPRLPRPRPRPSGAPRP,0.38
